The assay deals with H. pylori-bullfrog recombinant ferritin (ferritin nanoparticle) (bullfrog (Rana catesbeiana) | Helicobacter pylori). The assay can be described thus: SEC; concentrated supernatant (100-kDa MWCO TFF) on Superdex 200 Increase 10/300 GL, degassed PBS, 0.4 ml/min; size from LMW/HMW calibration standards; self-assembly of the monomer into the nanoparticle.

In general, stoichiometry N refers to the number of molecules, sites or subunits per partner or assembly. “H. pylori-bullfrog recombinant ferritin (ferritin nanoparticle)”: the stoichiometry N came to 24.
